Literature values, collected in patent US20060105948A1, “GLP-2 derivatives” (Novo Nordisk A/S, priority 2003, published 2006).

How the values were obtained:
[1] = tested on: (DS)-induced colitis in mice; conditions: 350 ng or 750 ng s.c. twice daily for 9-10 days
[2] = in vivo
[3] = humans
[4] = s.c. injection 400 mg = 106.000 pmol

Substance	histology of colon ([1]; DS mice)	body weight loss ([1]; mice on 5% DS in drinking water)	biological half-life [2]	T½ value of elimination ([3]; GLP-2 infusion 0.8 pmol/kg * min) [min]	plasma level of intact GLP-2(1-33) reached on infusion ([3]; GLP-2 infusion 0.8 pmol/kg * min, increasing from 9 pM) [pM]	injected GLP-2(1-33) still intact ([3]; one hour after the s.c. injection) [%]	maximum plasma concentration [3, 4] [pM]	time of maximum plasma concentration [3, 4] [min]
A2G-GLP-2(1-33) (HGDGSFSDEMNTILDNLAARDFINWLIQTKITD; Glucagon-like peptide 2; UniProt P01275 146-178, looked up, variant A2G) [GLP-2 peptide analog with Ala2 replaced by Gly]	greater proportion of intact mucosal epithelium, increased colon length, crypt depth and mucosal area	lost significantly less body weight	–	–	–	–	–	–
GLP-2(1-33)	–	–	about 7 min	7	131	69	1500	45
